Test results reported in patent US20230348614A1 (VISTERRA, published 2023).
Numbering of substitutions follows the chain as printed.

Tests used:
R155A = biological target: T1, R155A (Homo sapiens, UniProt P18827); assay: alanine scan: flow cytometry on HEK-293T cells expressing the mutant clone, 4320 Fab 0.50 ug/mL, normalised to WT CD138; Range %WT Binding 6; Normalized 4320 vs. BB4 39.8
T1 construct: clone of the alanine scanning library on HEK-293T cells; m17 with one substitution; also called CD138 R155A
T1 sequence (CD138 (SDC1), full length, point mutant, looked up): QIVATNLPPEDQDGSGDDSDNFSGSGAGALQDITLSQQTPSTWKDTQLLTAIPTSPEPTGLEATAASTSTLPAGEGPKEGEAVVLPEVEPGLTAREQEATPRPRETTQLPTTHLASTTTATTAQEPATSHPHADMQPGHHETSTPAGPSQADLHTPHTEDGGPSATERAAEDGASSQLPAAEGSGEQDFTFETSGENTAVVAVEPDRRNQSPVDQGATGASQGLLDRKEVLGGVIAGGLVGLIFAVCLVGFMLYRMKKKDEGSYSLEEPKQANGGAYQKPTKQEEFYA
Protocol: (§1) Serial dilutions of each MAb were tested for immunoreactivity against cells expressing target protein (WT) or vector alone. Validation of target expression and optimization of detection and binding of anti-CD138 antibodies both by flow cytometry was completed in replicate (N=4). The optimal screening concentration for each MAb was determined based on the raw signal values and signal-to-background calculations specifically optimized for each test article. Optimized parameters included the use of 10% goat serum as blocking reagent. Primary antibody staining was for 60 minutes at 25° C. Wash buffer include phosphate buffered saline (divalent metal ion free), pH 7.4. […] Secondary antibodies were diluted 1:400 and incubated for 30 minutes at 25° C.
(§2) Library screens of very-high-affinity mAbs can fail to yield critical residues for antibody binding due to deficiencies of such an assay to detect and differentiate critical vs. less critical binding based on affinity and quantification of cell binding. One common approach in the literature is the use of monovalent antibody derived fragments such as Fab usually weakens binding sufficiently to allow identification of critical residues for binding. […] Binding of each test Ab to each mutant clone in the alanine scanning library was determined, in duplicate, and likewise evaluated by flow cytometry.

P112A = biological target: T2, P112A (Homo sapiens, UniProt P18827); assay: alanine scan: flow cytometry on HEK-293T cells expressing the mutant clone, 4320 Fab 0.50 ug/mL, normalised to WT CD138; Range %WT Binding 9; Normalized 4320 vs. BB4 21.6
T2 construct: clone of the alanine scanning library on HEK-293T cells; m17 with one substitution; also called CD138 P112A
T2 sequence (CD138 (SDC1), full length, point mutant, looked up): T1 sequence (CD138 (SDC1), full length, point mutant, looked up) with P90A, A133R
Protocol: as §1, §2

G238A = biological target: T3, G238A (Homo sapiens, UniProt P18827); assay: alanine scan: flow cytometry on HEK-293T cells expressing the mutant clone, 4320 Fab 0.50 ug/mL, normalised to WT CD138; Range %WT Binding 9; Normalized 4320 vs. BB4 30.2
T3 construct: clone of the alanine scanning library on HEK-293T cells; m17 with one substitution; also called CD138 G238A
T3 sequence (CD138 (SDC1), full length, point mutant, looked up): T1 sequence (CD138 (SDC1), full length, point mutant, looked up) with A133R, G216A
Protocol: as §1, §2

R117A = biological target: T4, R117A (Homo sapiens, UniProt P18827); assay: alanine scan: flow cytometry on HEK-293T cells expressing the mutant clone, 4320 Fab 0.50 ug/mL, normalised to WT CD138; Range %WT Binding 13; Normalized 4320 vs. BB4 14.8
T4 construct: clone of the alanine scanning library on HEK-293T cells; m17 with one substitution; also called CD138 R117A
T4 sequence (CD138 (SDC1), full length, point mutant, looked up): T1 sequence (CD138 (SDC1), full length, point mutant, looked up) with R95A, A133R
Protocol: as §1, §2

G184A = biological target: T5, G184A (Homo sapiens, UniProt P18827); assay: alanine scan: flow cytometry on HEK-293T cells expressing the mutant clone, 4320 Fab 0.50 ug/mL, normalised to WT CD138; Range %WT Binding 17; Normalized 4320 vs. BB4 60.6
T5 construct: clone of the alanine scanning library on HEK-293T cells; m17 with one substitution; also called CD138 G184A
T5 sequence (CD138 (SDC1), full length, point mutant, looked up): T1 sequence (CD138 (SDC1), full length, point mutant, looked up) with A133R, G162A
Protocol: as §1, §2

Mean %WT Binding (R155A): 12.3 %WT | Mean %WT Binding (P112A): 22.6 %WT | Mean %WT Binding (G238A): 28.3 %WT | Mean %WT Binding (R117A): 14.4 %WT | Mean %WT Binding (G184A): 60.1 %WT
B1: Fab fragment of mAb 4320 (Fab, V domains shown)
VH: QVQLVQSGAEVKKPGASVKVSCKASGYSFSSYYMHWVRQAPGQGLEWMGTIHPSDSTTNYNQKFQGRVTMTVDTSTRTAYMELSSLRSEDTAVYYCANFVYWGQGTTVTVSS
VL: DIVMTQTPLSLSVTPGQPASISCKSSKSLLYKDGKTYLNWFLQKPGQSPQLLIYVVSTRASGVPDRFSGSGSGTDFTLKISRVEAEDVGVYYCQQLVEYPYTFGQGTKLEIKR
modifications: N-terminal Q1 observed as pyroglutamic acid (PCA) in the 138-2-5 complex
notes: In the crystal structures heavy chain residues 1-213 were traced; also called Fab4320
